Test results as given in the RNAGym collection of RNA variant scans (doi:10.7554/elife.80360).

B1: Hairpin Ribozyme (parent)
chain: GUCCUCUUUCACGUGCGCGUGAAAGAGAGAAGUGAACCAGAGAAACACACGUUGUGGUAUAUUACCUGGUA

Variants of: B1
Assay: self-cleavage, relative activity (ratio to wild type); higher = more cleavage; co-transcriptional
In the case of C4U U58C, the self-cleavage is reported as 0.495.
In the case of C4U A36C, the self-cleavage is reported as 0.145.
Work on C4U A36G yielded a self-cleavage of 0.465.
Variant C4U A36U has a self-cleavage of 0.227.
In the case of C4U G13C, the self-cleavage is reported as 0.282.
C4U G13U gave a self-cleavage of 0.314.
C4A A24G gave a self-cleavage of 0.143.
With C4A G54A the self-cleavage was 0.184.
Work on C4A G54C yielded a self-cleavage of 0.133.
For C4A G54U, the self-cleavage was 0.118.
For U5C C6A, the self-cleavage was 0.393.
Work on C4U A71C yielded a self-cleavage of 0.622.
Variant U5A A41G has a self-cleavage of 0.162.
C4U G42U showed a self-cleavage of 0.129.
Variant C4U G29C has a self-cleavage of 0.108.
In the case of C4G U9C, the self-cleavage is reported as 0.274.
C4G U9G showed a self-cleavage of 0.164.
C4G G42C showed a self-cleavage of 0.17.
With C3U G25U the self-cleavage was 0.187.
Variant C3U G25A has a self-cleavage of 0.205.
Work on C4G A41C yielded a self-cleavage of 0.236.
For C4G A41U, the self-cleavage was 0.558.
For C4U A43C, the self-cleavage was 0.128.
C4A A26U gave a self-cleavage of 0.228.
In the case of C4A A26C, the self-cleavage is reported as 0.13.
Work on C4A A26G yielded a self-cleavage of 0.17.
With C4U C37G the self-cleavage was 0.147.
C4U U53A showed a self-cleavage of 0.358.
For C3U U20C, the self-cleavage was 0.38.
With U5C A11U the self-cleavage was 0.55.
With U5C A11G the self-cleavage was 0.481.
C4A A44U gave a self-cleavage of 0.239.
In the case of C4A A59C, the self-cleavage is reported as 0.191.
C4A A59U gave a self-cleavage of 0.0921.
In the case of C4A A36U, the self-cleavage is reported as 0.197.
For C3U C16U, the self-cleavage was 0.628.
Variant C3U C65G has a self-cleavage of 0.153.
Variant C4A G15U has a self-cleavage of 0.182.
In the case of C4A G15A, the self-cleavage is reported as 0.227.
C4U A39G showed a self-cleavage of 0.122.
Variant C4U A39C has a self-cleavage of 0.251.
Work on C3U C37A yielded a self-cleavage of 0.315.
With C3U C37G the self-cleavage was 0.262.
Work on C4U A11C yielded a self-cleavage of 0.191.
C4U G15A showed a self-cleavage of 0.33.
Variant C4U G15U has a self-cleavage of 0.32.
C4U G15C gave a self-cleavage of 0.232.
With C4A A39G the self-cleavage was 0.134.
U5A A59C gave a self-cleavage of 0.262.
With U5A C65A the self-cleavage was 0.22.
U5A C65G showed a self-cleavage of 0.276.
U5A C65U showed a self-cleavage of 0.222.
In the case of C4G A11G, the self-cleavage is reported as 0.272.
For C4A U62G, the self-cleavage was 0.1.
For C4G G15U, the self-cleavage was 0.185.
For C4U G27A, the self-cleavage was 0.722.
U5A A23U showed a self-cleavage of 0.323.
In the case of U5A A23C, the self-cleavage is reported as 0.436.
Variant U5C A44G has a self-cleavage of 0.147.
U5A U33A showed a self-cleavage of 0.145.
In the case of C4U U7C, the self-cleavage is reported as 0.193.
U5A A22G gave a self-cleavage of 0.308.
Variant U5A A22C has a self-cleavage of 0.339.
In the case of C3U U63A, the self-cleavage is reported as 0.189.
In the case of C4A A11C, the self-cleavage is reported as 0.353.
C4G C50U showed a self-cleavage of 0.154.
Variant U5A A30G has a self-cleavage of 0.119.
Variant U5A A30U has a self-cleavage of 0.263.
C3U U8C gave a self-cleavage of 0.253.
Work on C3U G21U yielded a self-cleavage of 0.472.
C3U G21C showed a self-cleavage of 0.32.
Work on C4A C38U yielded a self-cleavage of 0.135.
Variant U5A A43U has a self-cleavage of 0.188.
C4A C12A gave a self-cleavage of 0.187.
In the case of C4A G29A, the self-cleavage is reported as 0.119.
In the case of C4U U9A, the self-cleavage is reported as 0.202.
For C4U C46U, the self-cleavage was 0.152.
For U5A U7C, the self-cleavage was 0.107.
U5A U7A showed a self-cleavage of 0.105.
Work on C4A G42C yielded a self-cleavage of 0.132.
Work on C3U G13U yielded a self-cleavage of 0.429.
Variant U5A C38G has a self-cleavage of 0.0942.
C4A A23G showed a self-cleavage of 0.209.
Variant U5C A28G has a self-cleavage of 0.358.
U5C A28U showed a self-cleavage of 0.277.
Work on U5A G69U yielded a self-cleavage of 0.115.
For U5A G69C, the self-cleavage was 0.0571.
U5A G69A showed a self-cleavage of 0.0903.
For C4G G56C, the self-cleavage was 0.111.
With U5A G29A the self-cleavage was 0.156.
In the case of U5A G29U, the self-cleavage is reported as 0.0792.
In the case of C4G G68A, the self-cleavage is reported as 0.084.
C4G U63A showed a self-cleavage of 0.252.
With C4G U63G the self-cleavage was 0.217.
C4G U70C showed a self-cleavage of 0.214.
Variant C4U C10U has a self-cleavage of 0.224.
In the case of C4G C37U, the self-cleavage is reported as 0.222.
In the case of C4U G25U, the self-cleavage is reported as 0.126.
Variant C4U G25C has a self-cleavage of 0.11.
Variant U5A G25C has a self-cleavage of 0.162.
U5A G25A showed a self-cleavage of 0.106.
With U5C A45U the self-cleavage was 0.133.
U5C A45G showed a self-cleavage of 0.157.
C4U U63C gave a self-cleavage of 0.191.
C4U U63A showed a self-cleavage of 0.157.
With U5A U58G the self-cleavage was 0.251.
U5C C37U showed a self-cleavage of 0.348.
Work on C4G A35C yielded a self-cleavage of 0.16.
C4G A35U gave a self-cleavage of 0.157.
C3U U53C gave a self-cleavage of 0.672.
For U5C A30U, the self-cleavage was 0.11.
With C4A U14A the self-cleavage was 0.191.
C4A U8G showed a self-cleavage of 0.0842.
C4A G13A showed a self-cleavage of 0.193.
With C4G U7G the self-cleavage was 0.144.
In the case of U5C A23U, the self-cleavage is reported as 0.461.
Variant C4A A35C has a self-cleavage of 0.127.
With C4U G56C the self-cleavage was 0.214.
Variant C4U G56U has a self-cleavage of 0.126.
With U5A G54C the self-cleavage was 0.124.
With U5A G54U the self-cleavage was 0.327.
For U5A G54A, the self-cleavage was 0.192.
Work on C4U A26U yielded a self-cleavage of 0.156.
C4A C66G gave a self-cleavage of 0.193.
In the case of C4A C66U, the self-cleavage is reported as 0.136.
With C4A C37U the self-cleavage was 0.16.
C4G C12U gave a self-cleavage of 0.187.
Variant U5C A61U has a self-cleavage of 0.105.
For C4U U70G, the self-cleavage was 0.214.
Work on C3U U5C yielded a self-cleavage of 0.299.
Variant C4U U52A has a self-cleavage of 0.295.
C4U G34U showed a self-cleavage of 1.12.
Variant C4U G34C has a self-cleavage of 1.03.
With U5A G40C the self-cleavage was 0.159.
Variant C4G A71U has a self-cleavage of 0.289.
Work on C4G A71G yielded a self-cleavage of 0.241.
Variant C4G G27U has a self-cleavage of 0.31.
In the case of C4G U55A, the self-cleavage is reported as 0.119.
For C4G U55C, the self-cleavage was 0.122.
C3U G57C showed a self-cleavage of 0.094.
Work on C3U C48U yielded a self-cleavage of 0.172.
C3U C48G showed a self-cleavage of 0.159.
In the case of U5C A26C, the self-cleavage is reported as 0.497.
In the case of C4A A49U, the self-cleavage is reported as 0.189.
Variant C4G C10G has a self-cleavage of 0.114.
C4G C10A gave a self-cleavage of 0.12.
In the case of C4G A28C, the self-cleavage is reported as 0.172.
Variant C4A G25A has a self-cleavage of 0.169.
C4U A44C showed a self-cleavage of 0.102.
Work on U5A A35C yielded a self-cleavage of 0.364.
C3U C38G showed a self-cleavage of 0.201.
With U5A A36U the self-cleavage was 0.255.
With U5C A47G the self-cleavage was 0.332.
U5A A24U showed a self-cleavage of 0.273.
For C4G G17A, the self-cleavage was 0.159.
U5A U60G gave a self-cleavage of 0.29.
In the case of C4U G21A, the self-cleavage is reported as 0.389.
Work on C4G G19A yielded a self-cleavage of 0.143.
Variant C4G G19U has a self-cleavage of 0.225.
Variant C4U G40U has a self-cleavage of 0.0478.
For C4G A47C, the self-cleavage was 0.13.
Variant C4G A47U has a self-cleavage of 0.0972.
With C4A U58C the self-cleavage was 0.293.
With C4U C66U the self-cleavage was 0.234.
With C4A C65G the self-cleavage was 0.179.
U5A A44U gave a self-cleavage of 0.125.
C4U A47G gave a self-cleavage of 0.0924.
